These results are taken from the NTF2 design screens of Basanta et al. (2020).

A short description of the series: protease stability score; higher = more stable; yeast display proteolysis, trypsin and chymotrypsin.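 Note: relative to predicted unfolded state with 0 unfolded-like and 1 meaning tenfold more protease.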
The sequence “DEDERETRFIIKLLLETIQTGDEKTFEELLDPSVRLVVGDKIIHGRDVLSEFFSHARFHRIEIHNMESQGDKAHIDIRVDGKFNGKRKTTEVNLHIEKFDGRWRIKEFRIH” displayed a protease stability score of 2.08.

On to “DEDEREVAEVLRRWLHDFLTGDEKEFHRLVDPHVKYREHYNGQQIHVHGRENLFEFIRRRNEEMRMEILIRDWKVQGDYAESEGEVIFDINGRIHSVDLRVEIIVVNGRVSKVHISVN”, for which the protease stability score was 0.847.

As for “DEDEREVKHWLKILLHELWTGDFRNVSRLMDPHARLLINGVTVVGREEFLEVLRRVDHIELRIRDMKVIDGRIHAETELIEHFDGRTFIHDTHMRAKKVDGRWRIESIEIR”, the protease stability score was 1.31.

The sequence “DEDERFAEIAIRLMIEIIKTGDEREEDKLIDPHARLIVGDWLIHGRDELVRYLTHLRIEHLEIKTWEVVNGRVKLTTRIHLRINGRHHETDQVNIIEKVNGRWYMKLIEFK” displayed a protease stability score of 1.19.

“DEDERFFHEMLELWMHIYETGDWNRLHELFDPNALLLIGDKQVHGREKVTHYLFEMVHRADHSESRVRELHVIDGRVHIHLELHIDQGDKHLRIEIFLHAKKVNGRWVFTKLELR” registered a protease stability score of 1.99.

Consider “DEDERFTKFAWELLVKALVTGDEDSLKDLFDPHARIFYNGRINHGRESFVKHLMEIRFKRIEMRRFDFFDGRVRMEGEVEGEVDGKEDHYRIEIVVKKYDGRWELKEFRLV”, for which the protease stability score is 1.68.

Take “DEDERHARKVLELWLQSLLTGDEELTDHLLDPRVKILVDGVELHGREHARMFHRHIHMRIDHMKDFHIHSFTSVGDKVHVDIRIHFRQGDKEYRLNQRTLILKVNGRWVIEKIEVD”: the protease stability score came to 2.22.

For “DEDERHFEIWFKLFIHLYLTGNEETLRHLADPNVRTVYNGRDFHGWDEMVRIHHEMFDFYKGLRVEKVNVESVEIFDGRVLILLRIRVLVNGRTTDDHIHVEAKKIDGQWIIESVDFR”, the protease stability score was found to be 1.65.

“DEDERHMEKMWRDWVHARYTGDEHRLDELFDPDARMLIDGVDAVGREEVHRLLHKMLKRLGIKHIEHVRITHIEIQGDKIHIENEIRGIVGDKTTTVEVHLVIIKVDGQWRIRSVEEK” yielded a protease stability score of 1.14.

In turn, “DEDERHMRQTLEDYDHAVETGDWKRLRELADPDYKTDIDGVEIHGMELFWEHLRREVEKYKNVKVEFRLKRIRSIGDFMEIDGRLTLKYGDKEIRVRVIIHAIKVDGRWLFHRMIFG” had a protease stability score of 1.69.

With “DEDERHTKILIDLLLHNSHTGDEHVLRHLFDPNVKIVIGDKELIGREYADQFIKRVDVIDHIEIKDWHTIGDKVHFHGETEGVIDGRKVHTHVKLEMKKFDGRWLIHRIVIR”, the protease stability score is 1.95.

Sequence “DEDERISRNFVRLILHAIRTGNENMIKTMADPNDRLEVGDKEFHGRELALEFWFRFDVLKEFHIRSVHSQGDKLHIEGESTWVIGDKEIRTTEHRLIIKIDGQWVLTEIKME” yielded a protease stability score of 1.62.

“DEDERLAEEAVKLLIEINRTGDEDLFERNIDPNAQSDINGRRLHGMEQISEFLLRIKNIKLQPRHVDVQGDKMRVEGHLHINGQTHEVRWFVTKINGVWLITEIRVH” displayed a protease stability score of 1.12.

The sequence “DEDERLAEEFFEKFTRDIYTGDWRALRELLDPNVRLHINGRNHHGREELLYFEIEIYRRADHVEHRLREVTLFDGRVHVDVEIILHQGDKLIVLHVILFMEKVDGRWILRRKEVR” registered a protease stability score of 1.5.

Sequence “DEDERLAKHFIELFIESFLTGDFDEVRKLIDPHTRVEIIIGDKVIEDHGWEAYSRTFNHLGIDHIHREDFRVTLVNGRAVLRLQFRIEIGDKEFDMHIHVFSNKINGRWHVERILIYVR” showed a protease stability score of 2.34.

The sequence “DEDERLEEEALRLLRHSLHTGDERIITELADPHARLEFNGREFHGREDFLRFIVHMRVRHEEEKSVRLQGDKVDVNWHMVVLFDGQLRRQDVRLILWKFNGRWHIKSIRIE” registered a protease stability score of 1.5.

In turn, “DEDERLFEEATRLWSKLVLTGDEKRLEELMDPNVRVVIGDKVFHGREIAVKVVKELRVEHIIIRRWEIIGDKAHIRGESRGIVNGVERVSTLDLTLLKIDGRWIIESIRLE” came in with a protease stability score of 1.09.

“DEDERLLKELLESLIKSHRTGDWEHLRENADPRTRLEIGDKEIIGMEKVTHFWERERKRADHEHIEIHDMKIYDGVAHVDTRLHFHFNGVDITLEFRLIMLKVNGRWILKSEHLK” came in with a protease stability score of 0.133.

“DEDERLLRDHLKLFQDAVRTGDEEVLSELLDPNVRLHIGDKTIHGREIVIDILRTEMRHLGVDYDETHLHHINIQGEWVHLHTELRLKVNGQRITLWTRLYLYKIDGKWIVTQIQLH” returned a protease stability score of 2.3.

“DEDERLMQKAMEELWDIWHTGDEDRYNELADPHDRFEVGDKEIHGREETSHFLTEFRKRVKGIRILTDRFDHRRIGDKVVLRLETRIEIDGVRIKTRLIFIIRKFNGKWHIHSIIVIIE” gave a protease stability score of 0.673.

“DEDERLSRELLKRWMTSIMTGDETSSQHLADPHDRIDINGREFHGRELATWVAHHLRIDSIQERHQEIQGEKLIVLGETDYIVDGVKQIRRTEYILRKFNGRWFFESIIFR” came in with a protease stability score of 0.9.

“DEDERLYRIALEFLIEWHETGDEDEITRNVDPDARVDINGRNLVGREKVHRTLKELGINVLHIHRVHIVNGRLDVDGTVRFNGRTHRTRIIMLKVDGKWILDWLFIH” showed a protease stability score of 1.56.

“DEDERMIDEYLKKLVKSLITGDEETFTRLVDPHARHDFNGVEYHGWLWLHMVRKRADHFEVRIKNSEVQGDKLRLDFELIFRQGDKTITLKIQVIITKVDGRWIITSIDHD” came in with a protease stability score of 1.79.

In turn, “DEDERNAHRMTQILIRSQETGDEHELMRLLDPHARVIIGDKHIHGWEEFSKLEHEYWERYKNMTLHVRLRHVEVINGVAHIHTHITININGKEDRFEIEIFFLKINGRWVLHSFRVD” came in with a protease stability score of 0.799.

Sequence “DEDERNHEEIWELFLRVVMTGDWNLHKEMLDPHVRIDIDGVHIHGREEAVKHIRHLRVELNHFHIEDVKIVNGRARIQTHEEVTIRIDGVRIETRRSTELIMIKVDGRWLLHHEIVR” showed a protease stability score of 0.524.

Sequence “DEDERNLREFLRRMVEHWLTGNEESLKRLIDPEVRIHIGDKDLVGREEEERYHRQMRSDRLHVELDSVDIVGDKLQLHITIHIDSIVNGRRLDIKYRHTLHVRKINGRWILEESEIK” gave a protease stability score of 0.814.

Take “DEDERNVRDVAYLLLHALWTGDEDMLRHLIDPDVRFHIDGRHHHGWLRVLEMFREIRIHDFRMHDEKFRIIGDKAEARFDGESIVVIDGKEVDRRVEERYIIVKVNGQWRLKMIEVHLR”: the protease stability score was found to be 1.55.

Sequence “DEDERQLEESLKHWIKALETGNEEEVMRLLDPNVKIEIGDKDLHGMEAEEERLRKVKGMRIEFRLRDMKHIGDKIDIDGELRLNFNGVDIKSKIIIFAHKFNGRWINRRIIVL” had a protease stability score of 1.83.

Sequence “DEDERRDRELAEHFEHLWMTGDEETLVENLDPNARVKVGDKENHGREAFILFLREFGIDHFEFRDSKIVNGQVHIDGEIDWNGRRTRVEHIVKIVDGKVKHWEIRIK” showed a protease stability score of 1.52.

As to “DEDERSAKHYLDLWHHALETGDEHEEERLLDPHVKVDIGDKTSHGRENTRDIIRRLLEELGADVLEFHIRHVNVVNGRVHLDGELVIKVGDYTLRSRTRLLVLKVNGRWFIERIKIE”, the protease stability score was determined as 1.09.

Take “DEDERTFRTAITLLLRDMHTGDEESFEKMVDPRTRLRYNGKELHGRDAYEFSLEELGVKHIEFKDMRVQGDFIWLEGTVNVNGKKIKLILIILKVDGKWIIHSIHLH”: the protease stability score worked out at 0.799.

“DEDERTMRIAFEMFKHNLETGDEDVIRRFVDPHVKIDIDGVHLHGWEVMYERIMRFDHVDIRLRDIRTFNGRAEIDGEILVEINGVSIEKRLIIHSEKIDGRWILRSHRII” showed a protease stability score of 0.89.

In turn, “DEDERVLEEALRLWLHWVATGNETKLMEMLDPNVRLDIGDKHTHGREKFHEFMKHHKELWGVTRFHLELKRYSIQGDKVEIDIEVDINGRHFDVHIRILKIDGKWRLEQVRIN” returned a protease stability score of 1.51.

“DEDERVMRTLLELLLRSHNTGDEDSYKQLLDPDTRVHVDGVDFHGMEFARTLARHWRVKHVELKDVRSQGNKIEADIHTVGVINGQELRTETHIITEKVNGRWVLHSISIR” had a protease stability score of 1.46.

“DEDESLAKWAVEVLFEDLRTGDEDHLRRLMDPDTRFIIGDKIFHGREKAEEWLRLNRKRVDHLESFHIHHITVDENHLRVHGRVVGTFDGVEDKYETHIFARKVNGRWHHRQLKIK” showed a protease stability score of 1.49.

For the sequence “DEDETFMREFLKELIHSLHTGDEETLLRLADPHTRVVINGRTLIGWETFDKLLKEARVHHHEIKRVRFFDGQVETDTRTDGRIDGVRVEIETTLIVKKVNGRWYMRSVIIT”, the protease stability score came to 0.686.

“DEDEYMAKEMSELLIHLLLTGDEEHFRKFADPNVRLIIGEFESHGREEALRLLRILHRDYGIKHIHFRLRHIHQIGDKVNIHSQVELRQGDKHNSHEMTVIIWKVNGRWVIHSIDIV” had a protease stability score of 2.38.

For the sequence “DEDFDIVKHIFDVYIDAILTGDFRTLERNIDPDAKLHFNGREYHGWEIVVKFMLEIRVHDVQYKTMHIYDGRVELHGRNDGVIDGQKTETDTKIIMVKIDGRWHVRHIRVG”, the protease stability score worked out at 1.33.

The sequence “DEDFEHARRVLELFIESVETGDENSYRRLADPNTRYHAENHEHHGREYYIRLLEELRMSVHDLKIESWRLVDGQLRLNTRTDLHVNVNGQRIRLDTETHIVLNKINGRWYIHIIYIG” registered a protease stability score of 1.27.

The sequence “DEDFELAERFLEKWINVSRTGDEKKAHELVDPNVLINIGDKQIHGRERVVEWVSHIRIHHLEIHHFDVQGDKLIIDGRMDGTVNGRRVDHHIRIIISKVNGRWQTKTIDHE” had a protease stability score of 0.665.

For the sequence “DEDFENASRTLKKFYEDEATGDEDALSELVDPNTRLDINGQQVHGWENFRKWIHHLGIKHVILHIRRYDSQGDKLHLETEEVHDFNGVEERRDTRLLLLKVDGKWIFKEIEVK”, the protease stability score came to 1.41.

Sequence “DEDFEYALRVAKLFWEAVFTGDEKTLEHLLDPNVRIDINGRHIHGREELIKLFHEIRIHMHEIRIDDIRVQGNYLLVHGHVILEVNINGRTTRIETEVRIEISKVNGRWIIRQSEHT” had a protease stability score of 2.08.

The sequence “DEDFRDAKHMWELYLELIHTGDEERLRKLMDPNVRVEVGDKELHGRHHYIKWVREMRMRIEDVRIRTVRNINGVVHIHGELRGEYVYGDKRVHFETEVELVLLKVNGRWKIHEEHIH” gave a protease stability score of 1.75.

Turning to “DEDHDIIREALERWRHYVHTGDWRSLLKMMDPHVRNDVDGVDIIGREEASRYYREVFERLGVDHIDIHLRDMQIQGDKVTVHSELELNYNGRRFMHDIEIISVKVDGRWSIRSVFSK”, the protease stability score was determined as 1.41.

“DEDHDLQEEILKRFEHLFRTGDWKELHHLLDPHARTRWDGRTRHGRDQVLDVMREMGADHLTIHHYNIQGEKIRIDFDLEIGDKRHKLDIHVSKINGKWIVKHIEIDTR” registered a protease stability score of 1.03.

For the sequence “DEDHDVYHRLVKITLSLLATGDESWMKKLFDPHVRVNINGVDVHGREWLLKLFRLLLERLGVDHMTAHVHDFRQYDGRVHADTTEVYDVDGREIRFKTEVIIDKFNGRWFVTFVIII”, the protease stability score was found to be 1.78.

For the sequence “DEDHEAMKHFQHLLERTHRTGDEERLLRLLDPNVRIIINGQHFHGREWWARHINHMRFHEYEFRVHHINVYGDKIEIDGTLRRRGEFDGREHEVNIRVHLTIEKFDGRWYMHILEFR”, the protease stability score was 0.795.
